The supplement of paper PMC12764529
± gives the half width of the 95% confidence interval.

Assays:
[1] = folding stability dG unfold from trypsin proteolysis; higher = more stable
Method in brief: (§1)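 Only designs with AlphaFold2 dimer inter-PAE above 15 were retained; each was a mini-protein under 80 residues with no cysteine, in a PA-tagged cDNA display construct. After digestion with trypsin and chymotrypsin and sequencing, K50 was inferred by Bayesian fitting of counts, and unfolding free energy was derived per protease or combined against a sequence-predicted unfolded-state K50 and a shared folded-state K50.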

[2] = folding stability dG unfold from chymotrypsin proteolysis; higher = more stable
Method in brief: as §1

[3] = folding stability dG unfold (combined trypsin and chymotrypsin); higher = more stable
Method in brief: as §1

| Sequence | folding stability dG unfold [1] | folding stability dG unfold [2] | folding stability dG unfold [3] |
| --- | --- | --- | --- |
| SAGPVKIQIEPDNGEEFEFRLPPNVSEIETSGDKFIIRFPPGMMFKIEIDEELPPGDTVPIRILDIVPSAGG [r19_274_TrROS] | 5.57 ± 0.238 kJ/mol | 5.27 ± 0.628 kJ/mol | 5.05 ± 0.711 kJ/mol |
| SAGGSAGGSKTITLSAEELEKMSPEERKKLAELAEKLGAKIEVKDGKVTITIEGLTPEELKALSAGGSAGGS [r12_945_TrROS_Hall] | 16 ± 1.05 kJ/mol | 9.76 ± 0.502 kJ/mol | 12.8 ± 1.05 kJ/mol |
| SAGGSGQKFEIDRMIHIPLPNGRMLYIMRMKNPIMIMEFNGDNFRPVATVPNDDIPPEIRDLIKKLSAGGSA [r2_133_TrROS] | 8.14 ± 0.285 kJ/mol | 9.43 ± 0.46 kJ/mol | 9.48 ± 0.502 kJ/mol |
| SEEPVEERDIVVKPGEEVKLELPEEPETVRVYVFNEDGELIEEREFPPGATPEELEGLKLPPGAVVRIVRSA [r9_215_TrROS_Hall] | 5.54 ± 0.151 kJ/mol | 10.6 ± 0.121 kJ/mol | 9.19 ± 0.188 kJ/mol |
| SAGMTVEELKAQPKNATVTSVSRDPSTGLYTVTIERPDSNGKWVTHTLTLTGPEAVAAAVAAGLPSLAASAG [r5_905_JUSTAS] | 5.47 ± 0.109 kJ/mol | 10.3 ± 0.18 kJ/mol | 9.03 ± 0.364 kJ/mol |
| SAGGSAKVIMFPSLEEALDLAKEAMGHGKPIQIFLPDGYMIEIEVKPDPDGKPKIDIKWRKLPPDDSAGGSA [r15_761_TrROS] | 8.47 ± 0.544 kJ/mol | 11.7 ± 0.31 kJ/mol | 10.7 ± 0.879 kJ/mol |
| SMKYRITLTITKGDEDIVVEIETESEEEAKEKFKKAISPELLKALPEDAKVEITVEPEPLVIPEPGVPLPSA [r9_111_JUSTAS] | 1.95 ± 0.159 kJ/mol | 5.09 ± 0.502 kJ/mol | 4.16 ± 0.259 kJ/mol |
| SAGGMTEVSVSEELRAEGGGLERVLVVTITTVTKVYPVGSSNKVEYEESTIVIPADDPAALEAAGVLLSAGG [r13_670_JUSTAS] | 2.36 ± 0.293 kJ/mol | -1.33 ± 1.51 kJ/mol | 1.07 ± 0.669 kJ/mol |
| SSAEELARRLAAELAERLPPGARITDVRIERRADGTVTITVTVELPDGRTLTVTITLDLATGEITIEIHPSA [r9_219_TrROS_Hall] | 20.7 ± 0.669 kJ/mol | 18.2 ± 1.09 kJ/mol | 20.4 ± 0.795 kJ/mol |
| ITITYDKETGELTVTLSVEIEREDGYLVRVSVTIRINPNGEIKIEKKIEVIKLPPAEVKLTDEELEKLKKES [r1_4_TrROS_Hall] | 10.1 ± 0.418 kJ/mol | 10.5 ± 0.46 kJ/mol | 10.4 ± 1.13 kJ/mol |
| SAGGSAGGSSSSTLISVEPSPGIVTVERPLSLDPVPVVERRIMTVSPSSSLSVTETSVFPVSLLSAGGSAGG [r6_970_JUSTAS] | 3.42 ± 0.397 kJ/mol | 3.9 ± 1 kJ/mol | 4.25 ± 0.628 kJ/mol |
| SAGGPPRPVRIDIDPDAGSIEIMFPNGWPYEIPIPPDSIDEITLDPNDHVIEIKMPGKEIKFDIEPVSAGGS [r16_104_TrROS] | -1.57 ± 0.502 kJ/mol | 3.17 ± 0.121 kJ/mol | 1.85 ± 0.46 kJ/mol |
| SAGGMTLTLIVPSKEEAERLAEALRALLPPGAKLEITVEEVTLKEDLPPDLPEVKEKKYLVVTIRLDSAGGS [r16_795_TrROS_Hall] | 12.7 ± 0.586 kJ/mol | 14.6 ± 0.335 kJ/mol | 14 ± 0.418 kJ/mol |
| SAGPRPIEIYVDPDGMINIRFPNNGREINIPIPKGAEIEIIELPDDYIVIEIKFGGETREFWIPPEDISAGG [r19_309_TrROS] | 16.9 ± 0.544 kJ/mol | 12.9 ± 0.268 kJ/mol | 14.5 ± 0.318 kJ/mol |
| SAGGSAGGSAGGSMLKGKIISVDPKKGYAIIYIPGKKKLLIIKFDPDNTIVEIKEAPLSSAGGSAGGSAGGS [r4_192_TrMRF] | 11.8 ± 1.46 kJ/mol | 9.23 ± 0.586 kJ/mol | 10.2 ± 1.38 kJ/mol |
| SRIKISIFRPGKIIPEIPIKVDSVEEAVEKVLEYIRKFPPNAPYYIMIEVEHTDPANGQKQEGTVHIPIKSA [r9_245_TrROS] | 9.3 ± 0.247 kJ/mol | 16.7 ± 0.201 kJ/mol | 14.2 ± 0.502 kJ/mol |
| SAGGMPPEELEAASLEERIARVRAAGLETATVRRPDGSTLTIDLGEEGPVTITTTTPPGETTTATLPSAGGS [r8_51_JUSTAS] | -4.35 ± 2.3 kJ/mol | 4.08 ± 0.176 kJ/mol | 2.74 ± 0.335 kJ/mol |
